Test results from article PMC4120848.
Where two headings read alike, the source gives them in different places.

How the values were obtained:
Assay in all cases: mMAPS
[1] = molecular target: endogenous EGFR phosphorylated at Tyr1068 (HeLa cells) (human (endogenous in HeLa)) (UniProt P00533)
[2] = molecular target: endogenous EGFR (HeLa cells) (human (endogenous in HeLa)) (UniProt P00533)
[3] = molecular target: endogenous EGFR phosphorylated at Tyr1068 (HeLa cells) (human (endogenous in HeLa)) (UniProt P00533); remark: listed apart in the source
[4] = molecular target: endogenous EGFR (HeLa cells) (human (endogenous in HeLa)) (UniProt P00533); remark: listed apart in the source

Substance: A647-conjugated EGF (ligand)
- percent of total detected EGFR events that are EGF-EGFR-pTyr1068 [1]: 1.27%
- percent of total detected EGFR events that are EGF-EGFR [2]: 3.3%
- percent of total detected EGFR events that are EGF-EGFR-pTyr1068 [3]: 2.64%
- percent of total detected EGFR events that are EGF-EGFR [4]: 4.35%
